Molecular target: T1, αE-catenin construct containing the M123 domain (UniProt P26231 1-906)
T1 sequence (looked up): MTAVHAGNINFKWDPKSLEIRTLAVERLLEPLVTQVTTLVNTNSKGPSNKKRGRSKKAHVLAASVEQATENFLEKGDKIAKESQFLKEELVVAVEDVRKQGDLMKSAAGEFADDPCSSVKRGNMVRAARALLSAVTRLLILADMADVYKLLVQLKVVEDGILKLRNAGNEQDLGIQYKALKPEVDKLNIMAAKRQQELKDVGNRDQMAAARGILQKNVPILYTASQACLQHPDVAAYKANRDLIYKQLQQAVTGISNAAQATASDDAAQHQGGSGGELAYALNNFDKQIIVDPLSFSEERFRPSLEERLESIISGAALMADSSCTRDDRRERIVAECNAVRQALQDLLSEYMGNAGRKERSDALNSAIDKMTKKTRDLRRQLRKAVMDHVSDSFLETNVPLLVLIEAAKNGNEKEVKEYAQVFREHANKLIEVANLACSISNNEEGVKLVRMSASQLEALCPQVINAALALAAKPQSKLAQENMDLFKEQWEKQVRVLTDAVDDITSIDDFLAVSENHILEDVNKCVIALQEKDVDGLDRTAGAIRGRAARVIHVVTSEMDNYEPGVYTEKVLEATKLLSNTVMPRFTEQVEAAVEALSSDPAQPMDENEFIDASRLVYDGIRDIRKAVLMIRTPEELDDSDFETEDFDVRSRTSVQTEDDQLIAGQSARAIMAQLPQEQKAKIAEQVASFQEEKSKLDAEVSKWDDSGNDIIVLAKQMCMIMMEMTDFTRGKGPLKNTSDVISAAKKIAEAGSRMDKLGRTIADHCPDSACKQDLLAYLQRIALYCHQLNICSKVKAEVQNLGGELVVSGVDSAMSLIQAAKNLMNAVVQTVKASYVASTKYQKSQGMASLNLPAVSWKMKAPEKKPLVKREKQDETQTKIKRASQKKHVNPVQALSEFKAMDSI
Experiment: magnetic tweezers force-jumping assay

B1: vinculin head domain 1 (VD1) (domain or fragment)
chain: MPVFHTRTIESILEPVAQQISHLVIMHEEGEVDGKAIPDLTAPVSAVQAAVSNLVRVGKETVQTTEDQILKRDMPPAFIKVENACTKLVRAAQMLQADPYSVPARDYLIDGSRGILSGTSDLLLTFDEAEVRKIIRVCKGILEYLTVAEVVETMEDLVTYTKNLGPGMTKMAKMIDERQQELTHQEHRVMLVNSMNTVKELLPVLISAMKIFVTTKNTKSQGIEEALKNRNFTVEKMSAEINEIIRVLQLTSWDEDAW
Binder B1 has a Kd of 2 nM, a koff of 0.008 s⁻¹ and a kon of 4.8e+06 M⁻¹ s⁻¹.

From paper PMC6727763 (Molecular Biology of the Cell, 2019)
